Measurements taken from patent US20220025010A1 (ANTAG THERAPEUTICS, published 2022).
*1 amine or outer side, *2 acyl side, *3 side chain or, on linkers, in order; H or OH if unused. Where no end group is shown, it is not given here. Side-chain parts run from the residue outwards. [ ]: non-standard residue; d: D form. The star is where a group is joined. C18 diacid = O=C(O)CCCCCCCCCCCCCCCCC(=O)*; C16 diacid = O=C(O)CCCCCCCCCCCCCCC(=O)*; γGlu = O=C(O)[C@H](CCC(=O)[*:2])N[*:1]; pGlu = O=C1CC[C@@H](C(=O)O)N1; AEEA = NCCOCCOCC(=O)O

T1: human GIP receptor (human, UniProt P48546 22-466)
T1 sequence (looked up): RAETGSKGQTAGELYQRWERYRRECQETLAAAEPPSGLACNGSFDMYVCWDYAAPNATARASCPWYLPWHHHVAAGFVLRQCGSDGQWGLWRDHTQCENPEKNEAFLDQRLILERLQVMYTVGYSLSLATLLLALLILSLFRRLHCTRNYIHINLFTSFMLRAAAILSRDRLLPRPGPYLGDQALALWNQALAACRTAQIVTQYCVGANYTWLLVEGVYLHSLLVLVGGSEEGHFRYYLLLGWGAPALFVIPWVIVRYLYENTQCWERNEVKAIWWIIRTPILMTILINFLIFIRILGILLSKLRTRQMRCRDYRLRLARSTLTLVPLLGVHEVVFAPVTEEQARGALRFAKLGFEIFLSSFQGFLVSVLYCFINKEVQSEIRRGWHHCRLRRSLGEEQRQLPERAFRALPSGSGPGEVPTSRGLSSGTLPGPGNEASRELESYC

B1: AT271 (peptide)
peptide: SGTFISDYSIAMDRIKQQDFVNWLLAQR
HELM: PEPTIDE1{S.G.T.F.I.S.D.Y.S.I.A.M.D.R.I.K.Q.Q.D.F.V.N.W.L.L.A.Q.R}|PEPTIDE2{[O=C(O)CCCCCCCCCCCCCCC(=O)[*:2]].[gGlu].[O=C(COCCOCCN[*:1])[*:2]]}$PEPTIDE1,PEPTIDE2,16:R3-3:R2$$$V2.0; N-terminus assumed
SMILES: CC[C@H](C)[C@H](NC(=O)[C@H](CO)NC(=O)[C@H](Cc1ccc(O)cc1)NC(=O)[C@H](CC(=O)O)NC(=O)[C@H](CO)NC(=O)[C@@H](NC(=O)[C@H](Cc1ccccc1)NC(=O)[C@@H](NC(=O)CNC(=O)[C@@H](N)CO)[C@@H](C)O)[C@@H](C)CC)C(=O)N[C@@H](C)C(=O)N[C@@H](CCSC)C(=O)N[C@@H](CC(=O)O)C(=O)N[C@@H](CCCNC(=N)N)C(=O)N[C@H](C(=O)N[C@@H](CCCCNC(=O)COCCOCCNC(=O)CC[C@H](NC(=O)CCCCCCCCCCCCCCC(=O)O)C(=O)O)C(=O)N[C@@H](CCC(N)=O)C(=O)N[C@@H](CCC(N)=O)C(=O)N[C@@H](CC(=O)O)C(=O)N[C@@H](Cc1ccccc1)C(=O)N[C@H](C(=O)N[C@@H](CC(N)=O)C(=O)N[C@@H](Cc1c[nH]c2ccccc12)C(=O)N[C@@H](CC(C)C)C(=O)N[C@@H](CC(C)C)C(=O)N[C@@H](C)C(=O)N[C@@H](CCC(N)=O)C(=O)N[C@@H](CCCNC(=N)N)C(=O)O)C(C)C)[C@@H](C)CC
B2: AT273 (peptide)
peptide: PGTFISDYSIAMDRIKQQDFVNWLLAQR
HELM: PEPTIDE1{P.G.T.F.I.S.D.Y.S.I.A.M.D.R.I.K.Q.Q.D.F.V.N.W.L.L.A.Q.R}|PEPTIDE2{[O=C(O)CCCCCCCCCCCCCCC(=O)[*:2]].[gGlu].[O=C(COCCOCCN[*:1])[*:2]]}$PEPTIDE1,PEPTIDE2,16:R3-3:R2$$$V2.0; N-terminus assumed
SMILES: CC[C@H](C)[C@H](NC(=O)[C@H](CO)NC(=O)[C@H](Cc1ccc(O)cc1)NC(=O)[C@H](CC(=O)O)NC(=O)[C@H](CO)NC(=O)[C@@H](NC(=O)[C@H](Cc1ccccc1)NC(=O)[C@@H](NC(=O)CNC(=O)[C@@H]1CCCN1)[C@@H](C)O)[C@@H](C)CC)C(=O)N[C@@H](C)C(=O)N[C@@H](CCSC)C(=O)N[C@@H](CC(=O)O)C(=O)N[C@@H](CCCNC(=N)N)C(=O)N[C@H](C(=O)N[C@@H](CCCCNC(=O)COCCOCCNC(=O)CC[C@H](NC(=O)CCCCCCCCCCCCCCC(=O)O)C(=O)O)C(=O)N[C@@H](CCC(N)=O)C(=O)N[C@@H](CCC(N)=O)C(=O)N[C@@H](CC(=O)O)C(=O)N[C@@H](Cc1ccccc1)C(=O)N[C@H](C(=O)N[C@@H](CC(N)=O)C(=O)N[C@@H](Cc1c[nH]c2ccccc12)C(=O)N[C@@H](CC(C)C)C(=O)N[C@@H](CC(C)C)C(=O)N[C@@H](C)C(=O)N[C@@H](CCC(N)=O)C(=O)N[C@@H](CCCNC(=N)N)C(=O)O)C(C)C)[C@@H](C)CC
B3: AT275 (peptide)
peptide: GGTFISDYSIAMDRIK([AEEA-AEEA-γGlu-C16 diacid])QQDFVNWLLAQR-OH
modifications: N-terminus assumed
SMILES: CC[C@H](C)[C@H](NC(=O)[C@H](CO)NC(=O)[C@H](Cc1ccc(O)cc1)NC(=O)[C@H](CC(=O)O)NC(=O)[C@H](CO)NC(=O)[C@@H](NC(=O)[C@H](Cc1ccccc1)NC(=O)[C@@H](NC(=O)CNC(=O)CN)[C@@H](C)O)[C@@H](C)CC)C(=O)N[C@@H](C)C(=O)N[C@@H](CCSC)C(=O)N[C@@H](CC(=O)O)C(=O)N[C@@H](CCCNC(=N)N)C(=O)N[C@H](C(=O)N[C@@H](CCCCNC(=O)COCCOCCNC(=O)COCCOCCNC(=O)CC[C@H](NC(=O)CCCCCCCCCCCCCCC(=O)O)C(=O)O)C(=O)N[C@@H](CCC(N)=O)C(=O)N[C@@H](CCC(N)=O)C(=O)N[C@@H](CC(=O)O)C(=O)N[C@@H](Cc1ccccc1)C(=O)N[C@H](C(=O)N[C@@H](CC(N)=O)C(=O)N[C@@H](Cc1c[nH]c2ccccc12)C(=O)N[C@@H](CC(C)C)C(=O)N[C@@H](CC(C)C)C(=O)N[C@@H](C)C(=O)N[C@@H](CCC(N)=O)C(=O)N[C@@H](CCCNC(=N)N)C(=O)O)C(C)C)[C@@H](C)CC
B4: AT279 (peptide)
peptide: PGTFISDYSIAMDRIK([AEEA-AEEA-γGlu-C16 diacid])QQDFVNWLLAQR-OH
modifications: N-terminus assumed
SMILES: CC[C@H](C)[C@H](NC(=O)[C@H](CO)NC(=O)[C@H](Cc1ccc(O)cc1)NC(=O)[C@H](CC(=O)O)NC(=O)[C@H](CO)NC(=O)[C@@H](NC(=O)[C@H](Cc1ccccc1)NC(=O)[C@@H](NC(=O)CNC(=O)[C@@H]1CCCN1)[C@@H](C)O)[C@@H](C)CC)C(=O)N[C@@H](C)C(=O)N[C@@H](CCSC)C(=O)N[C@@H](CC(=O)O)C(=O)N[C@@H](CCCNC(=N)N)C(=O)N[C@H](C(=O)N[C@@H](CCCCNC(=O)COCCOCCNC(=O)COCCOCCNC(=O)CC[C@H](NC(=O)CCCCCCCCCCCCCCC(=O)O)C(=O)O)C(=O)N[C@@H](CCC(N)=O)C(=O)N[C@@H](CCC(N)=O)C(=O)N[C@@H](CC(=O)O)C(=O)N[C@@H](Cc1ccccc1)C(=O)N[C@H](C(=O)N[C@@H](CC(N)=O)C(=O)N[C@@H](Cc1c[nH]c2ccccc12)C(=O)N[C@@H](CC(C)C)C(=O)N[C@@H](CC(C)C)C(=O)N[C@@H](C)C(=O)N[C@@H](CCC(N)=O)C(=O)N[C@@H](CCCNC(=N)N)C(=O)O)C(C)C)[C@@H](C)CC
B5: AT496 (peptide)
peptide: GGTFISDYSIAMDRIK(C16 diacid)QQDFVNWLLAQR-NH2
modifications: N-terminus assumed
SMILES: CC[C@H](C)[C@H](NC(=O)[C@H](CO)NC(=O)[C@H](Cc1ccc(O)cc1)NC(=O)[C@H](CC(=O)O)NC(=O)[C@H](CO)NC(=O)[C@@H](NC(=O)[C@H](Cc1ccccc1)NC(=O)[C@@H](NC(=O)CNC(=O)CN)[C@@H](C)O)[C@@H](C)CC)C(=O)N[C@@H](C)C(=O)N[C@@H](CCSC)C(=O)N[C@@H](CC(=O)O)C(=O)N[C@@H](CCCNC(=N)N)C(=O)N[C@H](C(=O)N[C@@H](CCCCNC(=O)CCCCCCCCCCCCCCC(=O)O)C(=O)N[C@@H](CCC(N)=O)C(=O)N[C@@H](CCC(N)=O)C(=O)N[C@@H](CC(=O)O)C(=O)N[C@@H](Cc1ccccc1)C(=O)N[C@H](C(=O)N[C@@H](CC(N)=O)C(=O)N[C@@H](Cc1c[nH]c2ccccc12)C(=O)N[C@@H](CC(C)C)C(=O)N[C@@H](CC(C)C)C(=O)N[C@@H](C)C(=O)N[C@@H](CCC(N)=O)C(=O)N[C@@H](CCCNC(=N)N)C(N)=O)C(C)C)[C@@H](C)CC

biological target: T1, human GIP receptor; experiment: cell-based or functional assay

| Binder | CisBio cAMP agonism % Efficacy | CisBio cAMP antagonism % inhib | CisBio cAMP antagonism IC50 | CisBio cAMP antagonism pIC50 | DiscoveRx cAMP agonism Emax | DiscoveRx cAMP antagonism IC50 | DiscoveRx cAMP antagonism log IC50 | DiscoveRx cAMP antagonism % inhib |
| --- | --- | --- | --- | --- | --- | --- | --- | --- |
| B1 | 2% | 73% | 85.8 nM | 7.1 | 9 | 71 nM | -7.2 log M |  |
| B2 | 0% |  |  |  | 35 | 634 nM | -6.2 log M |  |
| B3 | 5% | 66% | 126 nM | 6.9 | 5 | 43 nM | -7.4 log M |  |
| B4 | 14% | 81% | 159 nM | 6.8 | 17 | 19 nM | -7.7 log M |  |
| [pGlu]GTFISDYSIAMDRIK([AEEA-AEEA-γGlu-C16 diacid])QQDFVNWLLAQR-NH2 [AT379] | 0% | 95% | 21.5 nM | 7.7 |  | 8 nM | -8.1 log M | 96% |
| [pGlu]GTFISDYSIAMDRIK([AEEA-AEEA-γGlu-C18 diacid])QQDFVNWLLAQR-NH2 [AT381] | 5% | 74% | 13.6 nM | 7.9 |  | 38 nM | -7.4 log M | 100% |
| [pGlu]GTFISDYSIAMDRIK(C18 diacid)QQDFVNWLLAQR-NH2 [AT391] | 0% | 95% | 271 nM | 6.6 |  | 10 nM | -8 log M | 100% |
| B5 | 0% | 100% | 39.8 nM | 7.4 |  | 12 nM | -7.9 log M | 100% |
